Experimental data from paper PMC4571865, “Structural Basis for Antigen Recognition by Transglutaminase 2-specific Autoantibodies in Celiac Disease*” (The Journal of Biological Chemistry, 2015).

Columns and labels:
Settings in all cases: both partners purified
[1] = target: T1, transglutaminase 2, wild type (UniProt P21980); assay: SPR; BIAcore 3000; anti-TG2 antibodies amine-coupled to CM5 chips (700-2300 RU); WT or mutant TG2 injected in HBS-EP (0.01 M HEPES, 0.15 M NaCl, 2 mM EDTA, 0.05% P20, pH 7.4), 40 ul/min, 25 °C; relative binding at 500 nM, kinetics from serial dilutions (15.6/156-500/5000 nM); 1:1 Langmuir model; reference cell with a non-TG2 reactive antibody
T1 construct: transglutaminase 2 (TG2); For the complex, native PAGE and SAXS the protein was incubated with 1 mM GDP (closed conformation); SASBDB SASDA28, SASDA38 and SASDA48 hold the SAXS data of TG2-GDP, the Fab and the complex; also called TG2; WT TG2

[2] = target: T2, transglutaminase 2 mutant R19S (Homo sapiens (assumed; human TG2 …, UniProt P21980, R19S); assay: as above
T2 construct: transglutaminase 2 (TG2); also called TG2 R19S

[3] = target: T3, transglutaminase 2 mutant K30A (Homo sapiens (assumed; human TG2 …, UniProt P21980, K30A); assay: as above
T3 construct: transglutaminase 2 (TG2); also called TG2 K30A

[4] = target: T4, transglutaminase 2 mutant R116A (Homo sapiens (assumed; human TG2 …, UniProt P21980, R116A); assay: as above
T4 construct: transglutaminase 2 (TG2); also called TG2 R116A

[5] = target: T1, transglutaminase 2, wild type; assay: SAXS; complex of TG2-GDP and 679-14-E06 Fab in solution, data at 9 mg/ml; molecular weight estimates and ab initio models; beamline P12, PETRA III

T1 sequence (P21980 whole entry): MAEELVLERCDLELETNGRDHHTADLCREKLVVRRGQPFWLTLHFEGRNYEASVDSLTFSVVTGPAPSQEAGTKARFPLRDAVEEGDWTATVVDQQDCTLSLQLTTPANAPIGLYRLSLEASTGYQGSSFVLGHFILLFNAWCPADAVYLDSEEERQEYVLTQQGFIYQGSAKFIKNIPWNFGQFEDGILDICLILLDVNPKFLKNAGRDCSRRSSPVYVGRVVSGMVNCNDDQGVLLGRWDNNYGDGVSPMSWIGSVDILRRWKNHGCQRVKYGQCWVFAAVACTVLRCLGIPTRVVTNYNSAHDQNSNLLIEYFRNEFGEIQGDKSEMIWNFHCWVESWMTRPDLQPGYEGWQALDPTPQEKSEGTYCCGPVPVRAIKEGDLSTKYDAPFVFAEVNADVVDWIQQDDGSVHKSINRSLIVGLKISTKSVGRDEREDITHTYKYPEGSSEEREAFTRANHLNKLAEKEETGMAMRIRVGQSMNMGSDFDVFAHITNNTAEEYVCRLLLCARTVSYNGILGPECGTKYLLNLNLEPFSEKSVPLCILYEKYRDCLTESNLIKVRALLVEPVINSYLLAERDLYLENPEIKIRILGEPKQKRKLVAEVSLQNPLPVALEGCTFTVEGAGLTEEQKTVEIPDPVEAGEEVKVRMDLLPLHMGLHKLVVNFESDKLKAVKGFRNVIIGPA
T3 sequence (P21980 whole entry K30A): as the sequence (P21980 whole entry) above, with K30A counted along it
T4 sequence (P21980 whole entry R116A): as the sequence (P21980 whole entry) above, with R116A counted along it
T2 sequence (P21980 whole entry R19S): as the sequence (P21980 whole entry) above, with R19S counted along it

B1: anti-TG2 antibody 679-14-E06 (human IgG1) (antibody, V domains shown)
VH: EVQLVQSGAEVKKPGESLKISCKGSGYSFTSYWIGWVRQMPGKGLEWMGIIYPGDSDTRYSPSFQGQVTISADKSISTAYLQWSSLKASDTAMYYCARPHYYDSLDAFDIWGQGTMVTVSS
VL: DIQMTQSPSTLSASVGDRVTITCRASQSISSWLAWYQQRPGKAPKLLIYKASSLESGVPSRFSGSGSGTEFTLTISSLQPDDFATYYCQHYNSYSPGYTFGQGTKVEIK
notes: constant region of human IgG1; IgG1; derived from a single gut IgA plasma cell of a celiac disease patient; Residues 142-149, 198-207, 225-231 of the heavy chain and 172-175, 228-234 of the light chain lack electron density in PDB 4ZD3 (IMGT numbering); source: HEK 293F cells, co-transfected heavy and light chain plasmids; purified from culture supernatant (protein G column)
Kd [1]: 55.5 nM | koff [1]: 0.00474 s⁻¹ | kon [1]: 85300 M⁻¹ s⁻¹ | Kd [2]: 147 nM | koff [2]: 0.00525 s⁻¹ | kon [2]: 35800 M⁻¹ s⁻¹ | Kd [3]: 49.9 nM | koff [3]: 0.00353 s⁻¹ | kon [3]: 70800 M⁻¹ s⁻¹ | Kd [4]: 240 nM | koff [4]: 0.00736 s⁻¹ | kon [4]: 30600 M⁻¹ s⁻¹

B2: Fab fragment of antibody 679-14-E06 (Fab, V domains shown)
VH: EVQLVQSGAEVKKPGESLKISCKGSGYSFTSYWIGWVRQMPGKGLEWMGIIYPGDSDTRYSPSFQGQVTISADKSISTAYLQWSSLKASDTAMYYCARPHYYDSLDAFDIWGQGTMVTVSS
VL: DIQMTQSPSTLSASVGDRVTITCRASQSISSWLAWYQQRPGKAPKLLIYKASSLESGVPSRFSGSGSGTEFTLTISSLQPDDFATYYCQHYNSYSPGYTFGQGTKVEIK
notes: Electron density is missing for residues 142-149, 198-207, 225-231 of the heavy chain and 172-175, 228-234 of the light chain in PDB 4ZD3 (IMGT numbering); also called the Fab fragment; source: HEK 293F cells, co-transfected heavy and light chain plasmids; purified from culture supernatant (protein L column)
stoichiometry N [5]: 1
